Assay results from IntAct's records for PubMed 11734542.

B1: Protein phosphatase EYA1 (Mus musculus), P97767 (parent)
chain: MEMQDLTSPHSRLSGSSESPSGPKLDSSHINSTSMTPNGTEVKTEPMSSSEIASTAADGSLDSFSGSALGSSSFSPRPAHPFSPPQIYPSKSYPHILPTPSSQTMAAYGQTQFTTGMQQATAYATYPQPGQPYGISSYGALWAGIKTESGLSQSQSPGQTGFLSYGTSFGTPQPGQAPYSYQMQGSSFTTSSGLYSGNNSLTNSSGFNSSQQDYPSYPGFGQGQYAQYYNSSPYPAHYMTSSNTSPTTPSTNATYQLQEPPSGVTSQAVTDPTAEYSTIHSPSTPIKETDSERLRRGSDGKSRGRGRRNNNPSPPPDSDLERVFIWDLDETIIVFHSLLTGSYANRYGRDPPTSVSLGLRMEEMIFNLADTHLFFNDLEECDQVHIDDVSSDDNGQDLSTYNFGTDGFPAAATSANLCLATGVRGGVDWMRKLAFRYRRVKEIYNTYKNNVGGLLGPAKREAWLQLRAEIEALTDSWLTLALKALSLIHSRTNCVNILVTTTQLIPALAKVLLYGLGIVFPIENIYSATKIGKESCFERIIQRFGRKVVYVVIGDGVEEEQGAKKHAMPFWRVSSHSDLMALHHALELEYL
partner: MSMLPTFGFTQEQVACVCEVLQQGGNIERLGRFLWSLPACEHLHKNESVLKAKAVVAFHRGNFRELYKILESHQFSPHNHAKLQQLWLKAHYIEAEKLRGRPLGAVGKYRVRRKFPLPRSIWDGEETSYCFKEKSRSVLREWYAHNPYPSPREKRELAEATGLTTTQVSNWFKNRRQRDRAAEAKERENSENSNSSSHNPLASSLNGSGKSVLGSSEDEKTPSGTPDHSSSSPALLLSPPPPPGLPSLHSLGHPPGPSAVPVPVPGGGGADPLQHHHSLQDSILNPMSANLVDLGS
B2: Protein phosphatase EYA1 (Mus musculus), P97767 (parent)
chain: B1 chain
partner: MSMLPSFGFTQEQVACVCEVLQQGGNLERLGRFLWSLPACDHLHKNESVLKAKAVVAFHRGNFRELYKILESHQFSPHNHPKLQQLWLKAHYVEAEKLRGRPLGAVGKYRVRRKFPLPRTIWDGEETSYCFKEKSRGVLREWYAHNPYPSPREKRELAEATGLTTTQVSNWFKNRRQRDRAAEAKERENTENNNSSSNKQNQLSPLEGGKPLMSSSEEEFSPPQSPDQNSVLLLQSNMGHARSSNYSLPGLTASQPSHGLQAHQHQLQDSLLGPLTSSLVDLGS

Variants of: B1
Conditions: with six2_mouse Six2, Q62232

| effect of a mutation on the interaction | Variant |
| --- | --- |
| decreasing interaction | E330K |
| decreasing interaction | G425S |
| decreasing interaction | S486P |
| decreasing interaction | L504R |

Variants of: B2
Conditions: with six1_mouse Six1, Q62231

| effect of a mutation on the interaction | Variant |
| --- | --- |
| disrupting interaction | L504R |
| disrupting interaction | S486P |
| disrupting interaction | E330K |

Variants of: B2
Conditions: with six1_mouse Six1, Q62231
Remark: another data set of the same source

| effect of a mutation on the interaction | Variant |
| --- | --- |
| decreasing interaction | L504R |
| decreasing interaction | S486P |
| decreasing interaction | E330K |
